For 1 molecule, Kd results are on record in PMC6960015 (Nature cell biology, 2019).

For the test, the target named is Rabbit skeletal muscle LatB-actin (rabbit, UniProt P68135 1-377). In words: BLI. In general terms: In BLI a coated tip is dipped into the sample, and binding shifts an interference pattern.

Broadly, the Kd is a measure of binding affinity in units of concentration. High values mean lower affinity, low ones higher affinity.

B1: GST-ArhGAP12 ΔNΔP (568-791) (domain or fragment)
chain: QKKTKKNLKKFLTRRPTLQAVREKGYIKDQVFGSNLANLCQRENGTVPKFVKLCIEHVEEHGLDVDGIYRVSGNLAVIQKLRFAVNHDEKLDLNDSKWEDIHVITGALKMFFRELPEPLFTFNHFNDFVNAIKQEPRQRVTAVKDLIRQLPKPNQDTMQILFRHLKRVIENGEKNRMTYQSIAIVFGPTLLKPERETGNIAVHTVYQNQIVELILLELSTVFGR
The molecule B1 had a dissociation constant (Kd) of 40.3 nM.
